Laboratory results published in the RNAGym collection of RNA variant scans (doi:10.7554/elife.90254).

B1: OR4K15 (parent)
chain: GUUAACGGUCAUAGGCCAUGGAAACUAGGAGCACCAUUUCGCUGCCAGUGAAGAAAUGAACAAAGAAAAUCUGGGCCAGGCAGGCAUCAAAAGAAAUAGUCUUGCGCUCAACCAGAAAGUCUGUAAUCAUUUUAAGGGUA

Variants of: B1
Assay: self-cleavage, relative activity (ratio to wild type); higher = more cleavage; in vitro, sequencing; the parent is a self-cleaving ribozyme

Row | Variant | self-cleavage
1 | A22G A24U | 1.27
2 | C76A | 0.1
3 | A114G G138C | 0.31
4 | G48A A59G | 1.25
5 | U3C G119A | 1.44
6 | U37C A63G | 0.79
7 | A60U A90G | 1.34
8 | U26C A86C | 0.7
9 | U3C A89C | 0.91
10 | A56G U103A | 0.04
11 | U43A G74C | 0.23
12 | A89G U122C | 1.03
13 | A82G A135G | 0.58
14 | A18U A91G | 1.16
15 | A66G A86G | 1.16
16 | A92C G115A | 0.36
17 | C34A U57C | 1.31
18 | A82C A94G | 0.19
19 | A47U A114U | 0.06
20 | A63U A92G | 1.88
21 | G58U A117G | 1.89
22 | A54U U139A | 1.63
23 | A13G A86U | 1.21
24 | A18G G73U | 0.23

Row | Variant | self-cleavage
25 | G14U A63G | 1.14
26 | U2C U9A | 0.57
27 | C10U A117G | 2.34
28 | A11U A116C | 0.23
29 | U70C U108C | 0.02
30 | A30U A63G | 2.01
31 | U97A U103A | 0.18
32 | A5G G80A | 0.43
33 | A11G G41U | 1.91
34 | A69G A95U | 1.56
35 | A27C A67U | 1.29
36 | A11G A90G | 1.04
37 | U38C A54G | 1.17
38 | A60G G79U | 0.08
39 | C46U U139C | 2.16
40 | G7U A90G | 2.21
41 | A11C A118U | 0.72
42 | A5G A68G | 0.89
43 | A5C A47G | 1.1
44 | U57A A118G | 1.37
45 | A52C A91G | 1.96
46 | A27G U127A | 1.58
47 | A51G C76A | 0.07
48 | G20A A27C | 1.93

Row | Variant | self-cleavage
49 | A36C A135G | 2.33
50 | A11G A27C | 0.61
51 | A59G A60U | 2.03
52 | A36G A96G | 1.13
53 | G75A | 0.11
54 | U57A U127A | 1.95
55 | C61A A91C | 2.41
56 | A54U U87C | 1.34
57 | A22U A27U | 2.02
58 | C109U A126G | 0.14
59 | U108C U132C | 0.01
60 | U9A A114G | 0.33
61 | A22G A111G | 0.05
62 | U3C G74U | 0.15
63 | A92U A125G | 0.58
64 | A51G U122A | 1.85
65 | U3A U38C | 1
66 | U3C A110G | 0.19
67 | A55G A82G | 0.83
68 | A47U A62U | 1.36
69 | A22G U120A | 1.22
70 | U57C A82G | 0.49
71 | G41A U127A | 2.15
72 | A67U U72A | 0.2

Row | Variant | self-cleavage
73 | U19C A94G | 1.53
74 | C34U A96C | 0.19
75 | G29C C42U | 1.06
76 | A126C U130C | 0.47
77 | U19A A114U | 0.04
78 | A47G A82U | 0.07
79 | U127C U130A | 0.35
80 | U49C A66G | 1.55
81 | U39C A134U | 1.21
82 | A13G G41U | 1.28
83 | A24G C46U | 0.73
84 | U87G U108C | 0.02
85 | A62G U70C | 0.47
86 | A64G A67G | 1.27
87 | U3C A47U | 0.68
88 | A68G C121U | 0.29
89 | C45U A86U | 1.17
90 | U9C A47C | 1.02
91 | U57A A69C | 0.34
92 | A13G A89G | 1.31
93 | U57A A116G | 0.94
94 | A56G G83U | 0.73
95 | G44A A64G | 1.36
96 | A56U A114U | 0.04

Row | Variant | self-cleavage
97 | A82C | 0.07
98 | A47G U102A | 0.78
99 | A64G A110C | 0.36
100 | U43A A60G | 1.52
101 | A11G A78U | 0.26
102 | A55G A91G | 0.98
103 | A47G A90U | 0.8
104 | U49C U132A | 1.65
105 | U12C A55G | 1.34
106 | A78U A82G | 0.08
107 | U97C A118U | 1.62
108 | A5C U103C | 1.39
109 | A36U | 1.38
110 | A11G A114G | 0.46
111 | G136C | 1.29
112 | A66G A111G | 0.02
113 | C25U A114G | 0.37
114 | A116G A135G | 0.5
115 | U37A A52G | 2.37
116 | A86U U102A | 1.36
117 | A59U A89G | 1.48
118 | A114G A135G | 0.93
119 | C88A U102A | 0.58
120 | U102C A126C | 1.47

Row | Variant | self-cleavage
121 | A30U A64G | 1.56
122 | A51U A95G | 2
123 | A23G G48U | 0.73
124 | A56G U122C | 0.91
125 | A13U U72C | 0.49
126 | A66G A78G | 0.31
127 | A86U A126G | 1.63
128 | A33U A78G | 0.29
129 | A52U A111G | 0.01
130 | U9C G58A | 1.29
131 | A24G U131G | 1.61
132 | A60G A89U | 1.5
133 | G83U C88U | 1.11
134 | U19G C105G | 0.05
135 | A95U A126G | 1.55
136 | U49C U122A | 1.33
137 | U127C A140U | 1.33
138 | U12C A22U | 0.66
139 | U2C A111G | 0.04
140 | U37C C105U | 0.15
141 | A4C U100C | 1.19
142 | A18C G28U | 1.37
143 | U87A U122C | 1.28
144 | A78U U139C | 0.28

Row | Variant | self-cleavage
145 | A64G A95U | 0.64
146 | G7A A52G | 1.25
147 | G28A A67G | 1.55
148 | U19A A62G | 1.32
149 | A5G A30U | 1.14
150 | A82G A134G | 0.54
151 | U43C A91U | 1.88
152 | U2C A59G | 0.91
153 | A89C A96G | 2.38
154 | U72A U133G | 0.36
155 | U120A U133A | 1.81
156 | A54U A116G | 0.83
157 | U87C A89G | 1.73
158 | A24C A69G | 1.24
159 | U49C A135U | 2.28
160 | A23G A27U | 1.29
161 | C40A U124C | 0.93
162 | U57A A116U | 0.15
163 | A51U A125G | 0.42
164 | A60G C128U | 1.12
165 | C81A U103C | 0.13
166 | U2C A24U | 1.45
167 | G99U | 0.51
